This is an account of results in publication doi:10.1101/2024.02.06.579105.

Test in all cases: SEC
For orientation: Size exclusion chromatography separates by hydrodynamic size, large species first.

Test [1] deals with MalE-DmxA^WT (M. xanthus).
Test [2] addresses MalE-DmxA^GAF×2 (M. xanthus).
In test [3] the target is MalE-DmxA^R615A (M. xanthus).
Test [4] concerns the target MalE-DmxA^E626A (M. xanthus).

Take MalE-DmxA^WT (domain or fragment): the stoichiometry N (commonly the number of molecules, sites or subunits per partner or assembly) in test [1] was 2.
For the substance MalE-DmxA^GAF×2 (domain or fragment), the stoichiometry N in test [2] was 2.
In the case of MalE-DmxA^R615A (domain or fragment), in test [3], the stoichiometry N came out at 2.
Turning to MalE-DmxA^E626A (domain or fragment), the stoichiometry N in test [4] came to 2.
